Test results from US20040121947A1, “Compounds which inhibit beta-secretase activity and methods of use thereof” (Oklahoma Medical Research Foundation, priority 2000, published 2004).
*1 amine or outer side, *2 acyl side, *3 side chain or, on linkers, in order; H or OH if unused. Where a SMILES comes first, the peptide text is derived from it. [ ]: non-standard residue; d: D form. The star is where a group is joined. LeuΨ(S-CHOHCH2)Ala = CC(C)C[C@H](N[*:1])[C@@H](O)C[C@@H](C)C(=O)[*:2]; 5FAM = O=C1OC2(c3ccc(O)cc3Oc3cc(O)ccc32)c2ccc(C(=O)*)cc21; Ahx = NCCCCCC(=O)O

Legend:
HEK293 cells = assay: Penetration of fluorescently labelled inhibitors into cultured cells (flow cytometry); assay type: cell-based, human; conditions: incubation 10 to 30 minutes
Method: Fluorescently labelled inhibitors or fluorescein (Fs) as a control were incubated with suspended cells for time intervals ranging from 10 to 30 minutes. Cells were fixed with paraformaldehyde and permeabilized in 0.2% Tween-20 in PBS for 6 minutes and incubated with anti-fluorescein-Alexa™ 488 antibody (Molecular Probes, Eugene, Oreg.) in order to enhance detection of intracellular inhibitor present from penetration. Flow cytometry (FACSCalibur™) and confocal fluorescent microscopy (Leica TCS NT™) were performed at the Flow and Image Cytometry Lab, OUHSC.

[1] = Transport of conjugated inhibitors to mouse blood, spleen and brain after i.p. injection
Method: Whole blood cells (with EDTA as anti-coagulant in the syringe or in the capillary tube) were isolated from anesthetized animals from the orbital artery or by heart puncture and diluted 1:10 in PBS. Prior to the harvest of other tissue samples, animals were anesthetized and perfused with 150 ml of neutral-buffered 10% formalin. Spleens were harvested intact. Brains were harvested and cerebral hemispheres separated, one for sectioning by cryostat, the other for single cell isolation for flow cytometry.
Sections of the brain hemispheres were obtained by soaking in OCT/PBS at 4° C. for overnight, recovered and frozen in Histo Prep Media.
To collect single cell suspensions, spleens and brain hemispheres were homogenized through a 30 μm screen and directly analyzed by flow cytometric analysis.

memapsin 2 = target: T1, memapsin 2 (Homo sapiens, UniProt P56817); assay: Inhibition of memapsin 2 proteolytic activity, fluorogenic substrate FS-2; assay type: biochemical; conditions: memapsin 2, carrier peptide-inhibitor conjugates; read-out: Ki apparent
T1 construct: pET-11 vector-derived residues 1-15 of promemapsin 2-T1 (N, cleaved yes); made in house; host or cells: E. coli
Procedure, shortened: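 Spontaneously activated memapsin 2 (80 nM final) equilibrated with inhibitor (about 10 nM–10 μM) in 0.1 M NaOAc pH 4.0 with 10% DMSO for 20 min at 37 °C, with fluorogenic substrate FS-2. Ki converted from Ki apparent using substrate concentration and Km.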

[2] = Martin et al. 1999; cited from earlier work

T1 sequence (P56817 41-454 limits assumed): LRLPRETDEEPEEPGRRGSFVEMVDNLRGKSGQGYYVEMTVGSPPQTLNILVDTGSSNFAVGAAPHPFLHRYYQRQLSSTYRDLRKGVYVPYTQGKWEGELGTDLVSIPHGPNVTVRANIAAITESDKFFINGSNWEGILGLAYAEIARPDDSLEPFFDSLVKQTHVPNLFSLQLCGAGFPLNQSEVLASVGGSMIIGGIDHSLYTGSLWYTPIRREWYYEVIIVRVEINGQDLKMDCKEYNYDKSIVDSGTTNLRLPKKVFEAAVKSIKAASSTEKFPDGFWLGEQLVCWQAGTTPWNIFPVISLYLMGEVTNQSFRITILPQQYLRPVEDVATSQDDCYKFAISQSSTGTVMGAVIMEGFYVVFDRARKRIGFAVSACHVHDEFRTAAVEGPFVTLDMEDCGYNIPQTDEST

Structure (SMILES) | Penetration of cultured cells (intracellular fluorescence) (HEK293 cells) | Splenocytes with fluorescence peak shift ([1]; mouse, in vivo, ip) [%] | Ki (memapsin 2) [nM] | Uptake into brain tissue ([1]; 8 hours after i.p. injection, flow cytometry or confocal microscopy) | Splenocytes with fluorescence peak shift ([1]; splenectomy 2 hours after i.p. injection) [%] | Blood cells with strong fluorescence signal ([1]; whole blood 20 minutes after i.p. injection, 0.3 nmol) | Crossing of the blood-brain barrier [2]
CC(C)C[C@H](NC(=O)[C@H](CCC(=O)O)NC(=O)CCCCCNC(=O)c1ccc2c(c1)C(=O)OC21c2ccc(O)cc2Oc2cc(O)ccc21)C(=O)N[C@@H](CC(=O)O)C(=O)N[C@@H](CC(C)C)[C@@H](O)C[C@@H](C)C(=O)N[C@H](C(=O)N[C@@H](CCC(=O)O)C(=O)N[C@@H](Cc1ccccc1)C(=O)NCC(=O)NCC(=O)N[C@H](CCCNC(=N)N)C(=O)N[C@H](CCCNC(=N)N)C(=O)N[C@H](CCCNC(=N)N)C(=O)N[C@H](CCCNC(=N)N)C(=O)N[C@H](CCCNC(=N)N)C(=O)N[C@H](CCCNC(=N)N)C(=O)N[C@H](CCCNC(=N)N)C(=O)N[C@H](CCCNC(=N)N)C(=O)N[C@H](CCCNC(=N)N)C(=O)O)C(C)C [CPI-2] ({5FAM-Ahx}-ELD[LeuΨ(S-CHOHCH2)Ala]VEFGG[dR][dR][dR][dR][dR][dR][dR][dR][dR]-OH) | readily penetrated cultured cells within minutes | ~100 | 58 |  |  |  | 
CC(C)C[C@H](NC(=O)[C@H](CC(N)=O)NC(=O)[C@@H](NC(=O)[C@H](CCC(=O)O)NC(=O)CCCCCNC(=O)c1ccc2c(c1)C(=O)OC21c2ccc(O)cc2Oc2cc(O)ccc21)C(C)C)[C@@H](O)C[C@@H](C)C(=O)N[C@@H](C)C(=O)N[C@@H](CCC(=O)O)C(=O)N[C@@H](Cc1ccccc1)C(=O)NCC(=O)N[C@@H](Cc1ccc(O)cc1)C(=O)NCC(=O)N[C@@H](CCCNC(=N)N)C(=O)N[C@@H](CCCCN)C(=O)N[C@@H](CCCCN)C(=O)N[C@@H](CCCNC(=N)N)C(=O)N[C@@H](CCCNC(=N)N)C(=O)N[C@@H](CCC(N)=O)C(=O)N[C@@H](CCCNC(=N)N)C(=O)N[C@@H](CCCNC(=N)N)C(=O)N[C@@H](CCCNC(=N)N)C(=O)O [CPI-1] ({5FAM-Ahx}-EVN[LeuΨ(S-CHOHCH2)Ala]AEFGYGRKKRRQRRR-OH) | readily penetrated cultured cells within minutes |  | 39 | penetration of the fluorescent conjugate into all brain cells | ~100 | approximately 100% | 
CC(C)(C)NC(=O)[C@@H]1CN(Cc2cccnc2)CCN1C[C@@H](O)C[C@@H](Cc1ccccc1)C(=O)N[C@H]1c2ccccc2C[C@H]1O [indinavir] |  |  |  |  |  |  | can cross the blood-brain barrier
